Several values for one entry are separate records, joined by “and”; a condition that tells them apart may be missing. Equal values may be shown once.
Key:
human TNF-alpha [1] = target: T1, human TNF-alpha (human, UniProt P01375 77-233); test: SPR (Biacore T200), mouse IgG captured by anti-mouse IgG Fc, human TNF injected at 20 nM
T1 construct: also called hTNF; human TNFα
Procedure: Recombinant rat/mouse chimeric IgG and Fab molecules were screened in the HEK-293-CD40-BLUE reporter assay at a number of concentrations to enable the calculation of EC50 values and determine the maximum percentage inhibition. […] IgG were also analysed in a Biacore experiment to determine binding affinities for human TNF. The assay format of the Biacore experiment was capture of the mouse IgG by immobilised anti-mouse IgG-Fc then titration of human TNF over the captured surface. BIA (Biamolecular Interaction Analysis) was performed using a Biacore T200 (GE Healthcare). Affinipure F(ab′)2 Fragment goat anti-mouse IgG, Fc fragment specific (Jackson ImmunoResearch) was immobilised on a CM5 Sensor Chip via amine coupling chemistry to a level of ˜5000 response units (RUs). HBS-EP buffer (10 mM HEPES pH 7.4, 0.15 M NaCl, 3 mM EDTA, 0.05% Surfactant P20, GE Healthcare) was used as the running buffer with a flow rate of 10 μL/min. A 10 μL injection of mouse IgG at 0.5 μg/mL was used for capture by the immobilised anti-mouse IgG-Fc. Human TNF, was injected over the captured mouse IgG twice at 20 nM at a flow rate of 30 μL/min. The surface was regenerated by 2×10 μL injection of 40 mM HCl, interspersed by a 5 μL injection of 5 mM NaOH at a flowrate of 10 μL/min. Background subtraction binding curves were analysed using the T200evaluation software (version 1.0) following standard procedures.
Neutralisation was determined using the HEK-293-CD40-BLUE reporter assay (Invivogen). […] Biacore analysis was performed to determine binding kinetics.

human TNF-alpha [2] = target: T1, human TNF-alpha; test: cell-based or functional assay
cynomolgus TNF-alpha = target: T2, cynomolgus TNF-alpha (cynomolgus, UniProt P79337 77-233); test: SPR (Biacore T200), Fab captured by anti-human F(ab')2, cynomolgus TNF at 3.125 nM
T2 construct: also called cyno TNF; cTNF
Procedure: (§1) The assay format of the Biacore experiment was capture of the rat/human chimeric Fabs by immobilised anti-human F(ab′) then titration of human or cynomolgus TNF over the captured surface. BIA (Biamolecular Interaction Analysis) was performed using a Biacore T200 (GE Healthcare). Affinipure F(ab′)2 Fragment goat anti-human IgG-F(ab′)2 fragment specific (Jackson ImmunoResearch) was immobilised on a CM5 Sensor Chip via amine coupling chemistry to a level of ˜5000 response units (RUs). HBS-EP buffer (10 mM HEPES pH 7.4, 0.15 M NaCl, 3 mM EDTA, 0.05% Surfactant P20, GE Healthcare) was used as the running buffer with a flow rate of 10 μL/min. A 10 μL injection of rat/human chimeric at 0.5 μg/mL was used for capture by the immobilised human IgG-F(ab′)2. Human or cynomolgus TNF, was injected over the captured rat/human chimeric Fab at (5 nM or 3.125 nM respectively) at a flow rate of 30 μL/min. The surface was regenerated by 2×10 μL injection of 50 mM HCl, interspersed by a 5 μL injection of 5 mM NaOH at a flowrate of 10 μL/min. Background subtraction binding curves were analysed using the T200evaluation software (version 1.0) following standard procedures.

human TNF-alpha [3] = target: T1, human TNF-alpha; test: SPR (Biacore T200), Fab captured by anti-human F(ab')2, human TNF at 5 nM
Procedure: as §1

B1: CA2109 IgG (recombinant rat/mouse chimeric IgG, rat variable regions on mouse gamma-1 / mouse kappa) (antibody, V domains shown)
VH: EVQLHQSGAALVKPGASVKLSCKTSGYTFTDNYIHWVKQSPGKSLEWIGYINPSSAYAHYNEKFKTKATLTVDKSTNTAYMELSRLTSEDSATYFCTRRYYSAMPFAYWGQGTLVTVSS
VL: DIVMTQSPASLSASLGETVTIECRASEDIYNGLAWYQQKPGKSPHLLIYNSNTLHTGVPSRFSGTGSGTQYSLKINSLQSEDVATYFCQQNYDFPLTFGSGTKLELK
notes: Rat variable regions cloned into mouse gamma-1 IgG and mouse kappa expression vectors, expressed in HEK-293; also called fwk18 IgG
Kd (human TNF-alpha [1]): 0.025 nM | koff (human TNF-alpha [1]): 0.000119 s⁻¹ | kon (human TNF-alpha [1]): 4.7e+06 M⁻¹ s⁻¹ | EC50 (ng/ml), HEK-293-CD40-BLUE reporter assay (human TNF-alpha [2]): 0.31 ng/mL

B2: 02109 rat/human chimeric Fab (Fab, V domains shown)
VH: EVQLHQSGAALVKPGASVKLSCKTSGYTFTDNYIHWVKQSPGKSLEWIGYINPSSAYAHYNEKFKTKATLTVDKSTNTAYMELSRLTSEDSATYFCTRRYYSAMPFAYWGQGTLVTVSS
VL: DIVMTQSPASLSASLGETVTIECRASEDIYNGLAWYQQKPGKSPHLLIYNSNTLHTGVPSRFSGTGSGTQYSLKINSLQSEDVATYFCQQNYDFPLTFGSGTKLELK
notes: Rat variable regions with human Fab constant regions; not the humanised graft; also called CA2109
Kd (cynomolgus TNF-alpha): 0.0274 nM and 0.027 nM | koff (cynomolgus TNF-alpha): 0.000102 s⁻¹ | kon (cynomolgus TNF-alpha): 3.71e+06 M⁻¹ s⁻¹ | Kd (human TNF-alpha [3]): 0.0349 nM and 0.035 nM | koff (human TNF-alpha [3]): 0.000143 s⁻¹ | kon (human TNF-alpha [3]): 4.09e+06 M⁻¹ s⁻¹

Source: patent US20200277366A1 (UCB, published 2020)
